Reference: publication PMC5779621
Each block holds one molecule with its values, some of them ahead of it.

What was measured:
[1] = biological target: Fibroblast growth factor receptor (human (endogenous in MCF-7)) (UniProt P11362); assay: Western blot of cell lysates for the receptor dimer
purified protein = substrate: CC(=O)N[C@H]1[C@H]([C@H](O)[C@H](O)CO)O[C@](OP(=O)(O)OC[C@H]2O[C@@H](n3ccc(N)nc3=O)[C@H](O)[C@@H]2O)(C(=O)O)C[C@@H]1O; assay: purified protein; details: donor substrate; acceptor type II LacNAc

stoichiometry N [1]: 2
Molecule: Fibroblast growth factor receptor (from UniProt P11362 22-822)

B1: recombinant human ST3Gal-IV (α2,3-sialyltransferase) (Homo sapiens) (protein)
chain: REDRYIELFYFPIPEKKEPCLQGEAESKASKLFGNYSRDQPIFLRLEDYFWVKTPSAYELPYGTKGSEDLLLRVLAITSSSIPKNIQSLRCRRCVVVGNGHRLRNSSLGDAINKYDVVIRLNNAPVAGYEGDVGSKTTMRLFYPESAHFDPKVENNPDTLLVLVAFKAMDFHWIETILSDKKRVRKGFWKQPPLIWDVNPKQIRILNPFFMEIAADKLLSLPMQQPRKIKQKPTTGLLAITLALHLCDLVHIAGFGYPDAYNKKQTIHYYEQITLKSMAGSGHNVSQEALAIKRMLEMGAIKNLTSF
Km (purified protein): 73.4 µM
